Results on 16 sequences are retold here after the nanobody polyreactivity screen of Harvey et al. (2022).

This data set in a line: yeast display, Sf9 membrane polyspecificity reagent, FACS + sequencing; frameworks hold sequencing errors. In short, it runs like this:
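Nanobodies came from a synthetic yeast display library in Saccharomyces cerevisiae BJ5465, induced with galactose for 36–48 hours and stained for 1 hour at 4 °C with 10% biotinylated, detergent-solubilized Sf9 membrane reagent. Cells were enriched on streptavidin microbeads and then FACS-sorted, with low and high (top ~1%) gates set on anti-HA fluorescence for expression and streptavidin fluorescence for reagent binding. Each polyreactivity label reflects the gate a clone came from. Genes were amplified by colony PCR, sequenced by MiSeq 2 × 250 and filtered by CDR length.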
For the sequence “QVQLVESGGGLVQAGGSLRLSCAASGRIIGYYAMGWYRQAPGKERELVAAITSGGRTNYADSVKGRFTISRDNAKNTVYLQMNSLKPEDTAVYYCAKEYPRYSSPYDYWGQGTQVTVSS”, the “polyreactivity (PSR sort gate)” value is on record as “low polyreactivity”.

In the case of “QVQLVESGGGLVQAGGSLRLSCAASGIIIQYYAMGWYRQAPGKERELVATITLRGGITYYADSVKGRFTISRDNAKNTVYLQMNCLKPEDTAVYYCNTDQGTTSDYGYWGQGTQVTVSS”, the “polyreactivity (PSR sort gate)” value is “low polyreactivity”.

On to “QVQLVESGGGLVQAGGSLRLSCAASGSIFDNNSMGWYRQAPGKERELVAAIDWSDGSTYYADSVKWRFTISRDNAKNTVYLQMNSLIPEDTSVYYCATVGKQKYDAKYGYWGQGTQVTVSS”, for which the “polyreactivity (PSR sort gate)” value is on record as “high polyreactivity”.

With “QVQLVESGGGLVQAGGSLRLSCAASGYTFASYDMGWYRQAPGKERELVAAIDWSGGSTYYADSVKGRFTISRDNAKNTVYLQMNSLKPEDTAVYYCAAERPWTYGSDGMDFWGQGTQVTVSS”, the “polyreactivity (PSR sort gate)” value is recorded as “low polyreactivity”.

For “QVQLVESGGGLVQAGGSLRLSCAASGRTFGVYMGWYRQAPGKERELVAVISSGDSTNYADSVKGRFTISRDNAKNTVYLLMNSLKPEDTAVYYCNAYGSDRLTLDDYWGQGTQVSVSS”, the “polyreactivity (PSR sort gate)” value was “low polyreactivity”.

With “QVQLVESGGGLVQAGGSLRLSCAASGIIFGPYAMGWYRQAPGKERELVAAISSSGGNTYYADSVKGRFTISRDNAKNTVYLQMNSLKPEYTAVYYCAAEGYWGQPFDYDGALEYWGQGTQVTVSS”, the “polyreactivity (PSR sort gate)” value was “high polyreactivity”.

With “QVQLVESGGGLVQAGGSLRLSCAASGFTFRYYAMGWYRQAPGKERELVAAIRRSGGSTYYADSVKGRFTISRDNAKNTVYLQMNSLKPEDTAVYYCAAVGPTYWRGYPSGYDYWGQGTQVTVSS”, the “polyreactivity (PSR sort gate)” value was “high polyreactivity”.

For the sequence “QVQLVESGGGLVQAGGSLRLSCAASGSTFYEKAMGWYRQAPGKEREFVAAITQSGGSTYYADSVKGRFTISRDNAKNTVYLQMNSLKPEDTAVYYCAKVWPKHYRSLGYGYWGQGTQVTVSS”, the “polyreactivity (PSR sort gate)” value is on record as “low polyreactivity”.

As to “QVQLLESGGGLVQAGGSLRLSCAASGSTFDDYAMGWYRQAPGKEREFVAAIDWSGGSTYYADSVKGRFTISRDNAKYSVYLQMKSLKPEVTAVYYCNADPDVSFDYWGQGTQVTVSS”, the “polyreactivity (PSR sort gate)” value is listed as “low polyreactivity”.

In the case of “QVQLVESGGGLVQAGGSLRLSCAASGSNFIGYAMGWYRQEPGKERELVAAISNSGGRTYYADSVKGRFTISRDNAKNTVYLQMNSLKPEDTAVYYCNVAYRIPYRMDYWGQGTQVTVSS”, the “polyreactivity (PSR sort gate)” value is on record as “high polyreactivity”.

Regarding “QVQLVESGGGLVQAGGSLRLSCAASGRTFHFYAMGWYRQAPGKERELVASITWSAVRTYYADSVKGRFTISRDNAKNTVYLQMNSLKQVDTAVYYCAKEWDYRLMDYWGQGTQVTVSS”, the “polyreactivity (PSR sort gate)” value was “low polyreactivity”.

For “QVQLVESVGGLVQAGGSLRLSCAASGLIFAYYAMGWYRQAPGKERELVAAISWTGGSTYYADSVKGRFTISRDNAKNTVYLQMNSLKPEDTAVYYCNTVGKPGFYSWGQGTQVTVSS”, the “polyreactivity (PSR sort gate)” value was “high polyreactivity”.

For “QVQLVESGGGLVQAGGSLRLSCAASGFIFLETDKGWYRQAPGKERELVASINSGTNTYYADSLKGRFTISRDNAKNTVYVEMNSLKPEDSAVYYCNADDAYLVTQPYDDNYDYWGQGTQVTVSS”, the “polyreactivity (PSR sort gate)” value is recorded as “low polyreactivity”.

On to “QVQLVESGGGLVQAGGSLRLSYAPSGRTFGYYAMGWYRQAPGKERELVAAIRSTGSTNYADSVKGRFTISRDNAKNTVYLQMNRLKPEDTAVYYCNAKRRFRYDYWGQGTQVTVSS”, for which the “polyreactivity (PSR sort gate)” value is recorded as “low polyreactivity”.

“QVQLVESGGGLVQAGGSLRVSCAASGRTLRSYAMGWYRQAPGKERELVAAISRSGGSTYYADSVKGRFTISRDNAKNPVYLQMNSLKPEDTSVYYCATRYLRSLDYWGQGTQVTVSS”: the “polyreactivity (PSR sort gate)” value is “high polyreactivity”.

As for “QVQLVESRGGLVQAGGSLRLSCAASGFNFPHYAMGWYRQAPGKERELVAAISKSGDSTYYADSVKARFTISRDNAKNTVYLQMNSLKPEDTAVYYCARRGRSVRWKYDYWGQGTQVTVSS”, the “polyreactivity (PSR sort gate)” value was “low polyreactivity”.
